In the DeepSol protein solubility set:

Experiment: soluble on expression in E. coli; label from the status in PepcDB or PDB records

Sequence	soluble on expression in E. coli
MSLKIAVLDDYQDAVRKLDCFSLLQDHEVKVFNNTVKGVGQLAARVADVEAIVLIRERTRVTRQLLDRLPKLKIISQTGRVSRDAGGHIDLEACTDKGVVVLEGKGSPVAPAELTWALVMAAQRRIPQYVASLKHGAWQQSGLKSTTMPPNFGIGRVLKGQTLGIFGYGKIGQLVAGYGRAFGMNVLVWGRENSKERARADGFAVAESKDALFEQSDVLSVHLRLNDETRGIVTVADLTRMKPTALFVNTSRAELVEENGMVTALNRGRPGMAAIDVFETEPILQGHTLLRMENCICTPHIGYVERESYEMYFGIAFQNILDILQGNVDSVANPTALAPALIRAEGHHHHHH	soluble
MSLKLDSKGPVLFKQKRVGINKTHFHILKFRTMRIDTPKDTPTHLLKNPDQYITKMGKFLRKTSLDELPQIWNIFVGHMSIIGPRPALWNQYDLIVERDKYGANDVPPGLTGWAQINGRDELPIEVKAKLDGEYVQNIGFWMDVKCFVGTIWSVLRSDGVVEGGTGSAKKEIASTKRREGHHHHHH	soluble
LGRLFGTDGVRGVANLELTAELAYKLGQAGAYVLTSETKHTPKILVGMDTRISGDMLEASLVAGLCSVGAEVACLGIAPTPTVAYLTRYYNADAGVVISASHNPYEFNGIKFFNSKGYKLSDALEERIESIILDNSEKIQLPTGEKIGRKIEIESPLDDYVNFIKSTIKGDLKGLKVAIDCANGASYQVAPVTFFELGADVCVINNEPDGVNINKDCGSTHIEQLQKFVIESGADVGLAFDGDADRVLAVDENGNMVDGDQIMAIIGLELKKQGKLTNNTIVATVMSNLGLDIMAKREGINIVKTKVGDRYVLENMLENGHVLGGEQSGHIIFLEHSTTGDGILTGAQLLNVVKSSGKKLSELASIMQVLPQVLMNARVSNQNKEKYLEDEVICEMCKELENEFRDEGRVLIRPSGTEPLVRVMIEGKDRDYIEKRALELVKVIEERLG	soluble
YTIKEAERGVVTRFGKFSHLVEPGLNWKPTFIDEVKPVNVEAVRELAASGVMLTSDENVVRVEMNVQYRVTNPEKYLYSVTSPDDSLRQATDSALRGVIGKYTMDRILTEGRTVIRSDTQRELEETIRPYDMGITLLDVNFQAARPPEEVKAAFDDAIAARENEQQYIREAEAYSNEVQPRANGQAQRILEEARAYKAQTILEAQGEVARFAKLLPEYKAAPEITRERLYIETMEKVLGNTRKVLVNDKGGNLMVLPLDQMLKGGNAPAAKSDNGASNLLRLPPASSSTTSGASNTSSTSQGDIMDQRRANAQRNDYQRQGE	not soluble
MGHHHHHHSHMVKMEPENKYLPELMAEKDSLDPSFTHAMQLLTAEIEKIQKGDSKKDDEENYLDLFSHKNMKLKERVLIPVKQYPKFNFVGKILGPQGNTIKRLQEETGAKISVLGKGSMRDKAKEEELRKGGDPKYAHLNMDLHVFIEVFGPPCEAYALMAHAMEEVKKFLVPDMMDDICQEQFLELSYLNG	soluble
MGSDKIHHHHHHMSTLLRQHAEQQFAEELHELKQNETNPVPENWEMSPQSVVTYLMGGKLKNGFEVSPKYIGNRRLMEIAVATLVTDRALLLYGLPGTAKSWVSEHIAAAISGDSTLIVQGTAGTGEEAIRYGWNYARLLAEGPSVGALVQTPVMKAMQEGKIGRIEELTRIGSDVQDTLITILSEKTLPIPELNTEVQAIRGFNIIATANNRDKGVNDLSSALKRRFNTVILPLPDSIDEEIDIVRRRVESFEKVMQLPAEKPALEEIRRVVTIFRELRQGATADGKTKLKTPSGTLSTAEAISVVNNGLAMAGYFGDGEIHAEDLVSGILGAVVKDPVQDKVVWQEYMETVVKNRDGWKDIYRASRDMI	not soluble
MSLPSEISDKATVPIEIGLTAAIVAIEANQPMILTASGDGGGSLAGLPYGPFDAITHRTLEIGLRAWVEEQTGLRLGYVEQLYTFGDRGRHARLGDTEVHVASIGYLALTRAADNAARAAGATFEPWYRFFPWEDWREQQPAIIARDIIPELTAWAAQAEEPGMARALARKDRVRLFFGVDGAPWDEERVLDRYELLYEAGLIEEARRDGRPAALSRSKAPTLGVAMRFDHRRILATAIARLRAKLKYRPVVFELLPPEFTLTELQHTVEAISGRHLHKQNFRRLVEAGALVEPTGEM	not soluble
MIAASDLKAGMTFEQDGKLIKVMEASHHKPGKGNTVMRMKLKDVRTGSTTDTTMRPDEKVKKAHIDTKPVQYLYSQDDMAIFMDLETYEQYEVPTALIEEELKYLLENMEVKIQFYGEEVIGLTLPTTVILRVAETQPSIKGATVTGSGKPATMETGLVVNVPDFVEADELLEINTAEGTYLKRAK	not soluble
EAVHRLDLILCNKTAYQEVFKPENISLRNKLRELCVKLMFLHPVDYGRKAEELLWRKVYYEVIQLIKTNKKHIHSRSTLECAYRTHLVAGIGFYQHLLLYIQSHYQLELQCCIDWTHVTDPLIGCKKPVSASGKEMDWAQMACHRCLVYLGDLSRYQNELAGVDTELLAERFYYQALSVAPQIGMPFNQLGTLAGSKYYNVEAMYCYLRCIQSEVSFEGAYGNLKRLYDKAAKMYHQLKKCETRKLSPGKKRCKDIKRLLVNFMYLQSLLQPKSSSVDSELTSLCQSVLEDFNLCLFYLPSSPNLSLASEDEEEYESGYAFLPDLLIFQMVIICLMCVHSLERAGSKQYSAAIAFTLALFSHLVNHVNIRLQAELEEGENPVPAFQSDGTDEPESKEPVEKEEEPDPEPPPVTPQVGEGRKSRKFSRLSCLRRRRHPPKVGDDSDLSEGFESDSSHDSARASEGSDSGSDKSLEGGGTAFDAETDSEMNSQESRSDLEDMEEEEGTRSPTLEPPRGRSEAPDSLNGPLGPSEASIASNLQAMSTQMFQTKRCFRLAPTFSNLLLQPTTNPHTSASHRPCVNGDVDKPSEPASEEGSESEGSESSGRSCRNERSIQEKLQVLMAEGLLPAVKVFLDWLRTNPDLIIVCAQSSQSLWNRLSVLLNLLPAAGELQESGLALCPEVQDLLEGCELPDLPSSLLLPEDMALRNLPPLRAAHRRFNFDTDRPLLSTLEESVVRICCIRSFGHFIARLQGSILQFNPEVGIFVSIAQSEQESLLQQAQAQFRMAQEEARRNRLMRDMAQLRLQLEVSQLEGSLQQPKAQSAMSPYLVPDTQALCHHLPVIRQLATSGRFIVIIPRTVIDGLDLLKKEHPGARDGIRYLEAEFKKGNRYIRCQKEVGKSFERHKLKRQDADAWTLYKILDSCKQLTLAQGAGEEDPSGMVTIITGLPLDNPSVLSGPMQAALQAAAHASVDIKNVLDFYKQWKEIG	soluble
MLIACRLCAKAVQQGLKTVVYVPDERLAGQFDKLLWTFTPTGFVPHCRVDNKLADVTPVIMNSRPVLMEAGCFGVLLNLDADVPPGFEQFPRVVEIVDEAEDGKLQARKRYRHYQEQGHDVRHHRLDGN	not soluble
MNKILLQCDNLCKRYQEGTVQTDVLHDVSFSIGEGEMMAIVGSSGSGKSTLLHLLGGLDTPTSGDVIFSGQPMSKLSSAAKAELRNQKLGFIYQFHHLLPDFTALENVAMPLLIGKKKPAEIDARAREMLHAVGLEHRATHRPSELSGGERQRVAIARALVNNPRLVLADEPTGNLDARNADSIFELLGELNRLQGTAFLVVTHDLQLAKRMSRQLEMRDGRLTAELSLMGAE	not soluble
MESTSTTVPSIVVYVTVPNKEAGKRLAGSIISEKLAACVNIVPGIESVYWWEGKVQTDAEELLIIKTRESLLDALTEHVKANHEYDVPEVIALPIKGGNLKYLEWLKNSTRES	soluble
MGSDKIHHHHHHMSELRQQCLWEHVSKPTVAAQALAGEHKADVCVIGGGITGLSAAIHLLEQGKSVIVLEAWKIGHGGSGRNVGLVNAGTWIRPDDVEATLGQKQGSRLNKVLGEAPAEVFAMIERLGIDCQAQHKGTLHMAHNATGIADLEARHEQWRRRGADVELLTGAQCQEYCGTDKISAALLDRRAGTINPMGYTQGLAAAVTRLGGKIFQQSSVEGLEREGDGWRVKTARGAVRAEKVVISTGAYTEGDWSNLQKQFFRGYYYQVASKPLQGIAADKVLPHGQGSWDTRTVLSSIRRDDQGRLLLGSLGRVDNKPAWFVRSWADRIQSHYYPELGKVEWEMHWTGCIDFTPDHLMRLFEPAPGLVAVTGYNGRGNTTGTVIGRAFAEFLLKGEADSLPIPFSPMSGVSAPSLRTAFYESGFSLYHAGQCLRVVL	not soluble
MNLIKEDMRVKVHMEGNVNGHAFVIEGEGKGKPYEGTQTANLTVKEGAPLPFSYDILTTAVHYGNRVFTKYPEDIPDYFKQSFPEGYSWERTMTFEDKGICTIRSDISLEGDCFFQNVRFKGTNFPPNGPVMQKKTLKWEPSTEKLHVRDGLLVGNINMALLLEGGGHYLCDFKTTYKAKKVVQLPDAHFVDHRIEILGNDSDYNKVKLYEHAVARYSPLPSQVWHHHHHH	soluble
MGSDKIHHHHHHMLKSCPMNPRLDALHPYPFEKLRALLADAGKPTHDLPPINLSIGEPKHAAPACVGQAIAANLAGLSVYPSTKGEPALRQAISQWLSRRYSIPAPDPESEVLPVLGSREALFAFAQTVIDPSAGALVVCPNPFYQIYEGAALLAGATPYYVNADPARDFGCDWARVPDEVWRRTQLVFVCSPGNPAGNVMSLEEWRTLFELSDRHGFVIAADECYSEIYLDEDNPPLGSLQAARRLGRDRYTNLVAFSSLSKRSNVPGMRSGFVAGDAALLARFLLYRTYHGSAMSPVVSAASIAAWSDETHVQENRRQYRAKFEAVLPILQNVLDVRAPQASFYLWAGTPGSDTAFARELYGRTGVTVLPGSLLAREAHNANPGQGRIRIALVAPLDQCVQAAERIAHFARTSI	not soluble
MGSDKIHHHHHHMQEQINLSEWRERARSFEQSANKVVLGLERQVRALTIAIFSRGHVLLEGDVGVGKTTLLKAASRLLGGAYQRIEGAIDLMPGDFLYHAYIDQNGQPAVAPGPLLRHEENLAVFFFNEINRARPQAHSLLLRLMAERSVNAFNRDYAFPHLTVFADRNGLEREETFELPAAARDRFFMEVSVTAPEDKELQRDLMFSTRFHDADALIETLEPGLVPYDKLNAVSAAIQESVRSELALQDYAVNIWQALRHPERIGIEIEDVDISRLVAGGASPRGMAMLMRAARTRAWLEGRDYLTPDDIRAVFPETVGHRVFFTPAYELRRDEIAPALLSGVLNKIPAP	not soluble
LQERELAKAAQEAEKKGEAFPDVPVTLYEAIVRDYTGRTPEAREQTLIVTHLNEDRRVLNSMIQDALAKPGEQQVTVPVLTTANIRDGELRRLSTWEAHPGALALVDNVYHRIAGISKEDGLITLEDKAGNTRLISPREAAAEGVTLYNPETIRVGAGDRMRFTKSDRERGYVANSVWTVTAVSGDSVTLSDGKQTRVVRPGQDRAEQHIDLAYAITAHSAQGASETFAIALEGTEGGRKQMAGFESAYVALSRMKQHVQVYTDDRQGWVKAINSAEQKGTAHDVLEPKSEREMMNAERLFSTARELRDVAAGRAVLRNAGLAQGDSRARFIAPGRKYPQPYVALPAFDRNGKSAGIWLNPLTTDDGAGLRGFTGEGRVKGSEEAQFVALQGSRNGESLLAGSMQDGVRIARENPDSGVVVRIVGDGRPWNPVAITGGRVWGDIPDSNVQPGAGNGEPVTAEILAQRQAEEAVRRETERRADEIVRKMAEDKSDLPEEKTAQAVREIAGQEQDRMTPPEREPPLPESVLREPQRER	not soluble
MPSERRPFQTAFLSNRKTVGKLAERVQSRYDGLHKFKHICSAAMALIKEPLDKVKQRNEELEAAEEAAAQEALGREQEAARVSEWEERYKLSRSEFEQFWKGLPQTVQNKLQASQKTWKSGMDKICANNAKAEGKTPNGIKFSELACKTAKTEARLEELHNRKKALIDEMAREADKKELSKRL	not soluble
GPGSMLRGTRLMLMMQLHSLPTPNPSCYTFHIPSSTYDNFIPDGQTCDVAHMGLAWVHPLSQGIFEQYPQEVASVFIAPRHTSITVHPHVDWNKLEWSISSFIGHYLVFTNACFPAAAEYALLEDDLVIHEDDSEVLQCIKELVREQVRPMVQRDGGDVKLLNFNEKTGVVSLAMLGACRTCPSSQNTLKDGVERLLKHFLPEVKEVVEAKGHAFYEEYGLLFDSEKALREEAARVDAVRRRKISIYTTAPLMPFEALNEPDGDE	not soluble
